Experimental data published in US7589065.

T1: Ala-Ala-Tyr-Ala-Ala
T1 chain: AAYAA

B1: Parvulin (protein)
chain: AKTAAALHILVKEEKLALDLLEQIKNGADFGKLAKKHSICPSGKRGGDLGEFRQGQMVPAFDKVVFSCPVLEPTGPLHTQFGYHIIKVLYRN
B2: trigger factor (TF) (protein)
chain: MQVSVETTQGLGRRVTITIAADSIETAVKSELVNVAKKVRIDGFRKGKVPMNIVAQRYGASVRQDVLGDLMSRNFIDAIIKEKINPAGAPTYVPGEYKLGEDFTYSVEFEVYPEVELQGLEAIEVEKPIVEVTDADVDGMLDTLRKQQATWKEKDGAVEAEDRVTIDFTGSVDGEEFEGGKASDFVLAMGQGRMIPGFEDGIKGHKAGEEFTIDVTFPEEYHAENLKGKAAKFAINLKKVEERELPELTAEFIKRFGVEDGSVEGLRAEVRKNMERELKSAIRNRVKSQAIEGLVKANDIDVPAALIDSEIDVLRRQAAQRFGGNEKQALELPRELFEEQAKRRVVVGLLLGEVIRTNELKADEERVKGLIEEMASAYEDPKEVIEFYSKNKELMDNMRNVALEEQAVEAVLAKAKVTEKETTFNELMNQQA
B3: fragment of the trigger factor (protein)
chain: RKQQATWKEKDGAVEAEDRVTIDFTGSVDGEEFEGGKASDFVLAMGQGRMIPGFEDGIKGHKAGEEFTIDVTFPEEYHAENLKGKAAKFAINLKKVEERELPELTAE

Target: T1, Ala-Ala-Tyr-Ala-Ala

| Protein | relative intensity of the cross signal of the Ala-Tyr peptide bond (no addition: 3.50 ± 0.51) (relative intensity) | relative intensity of the cross signal of the Tyr-Ala peptide bond (no addition: 3.89 ± 0.32) (relative intensity) |
| --- | --- | --- |
| B1 | 2.9 | 3.11 |
| B2 | 3.83 | 4.42 |
| B3 | 3.96 | 3.22 |
